The values below come from patent US20230302083A1, “HIGHLY-NETWORKED C[…] COMPOSITION” (priority 2020, published 2023).

B1: … (peptide)
peptide: RVIHFGAGSDK
modifications: not checked
B2: … (peptide)
peptide: GNYQCGHYK
modifications: not checked
B3: … (peptide)
peptide: KGIYQTSNFR
modifications: not checked
B4: … (peptide)
peptide: VMCGGSLYVK
modifications: not checked

The experiment has as its target HLA-A*0301 (human).
As to B1, the HLA-A*0301 stabilization relative to HIV RK9 is above 50%.

Molecule B2 gave an HLA-A*0301 stabilization relative to HIV RK9 above 50%.

B3 had an HLA-A*0301 stabilization relative to HIV RK9 above 50%.

Molecule B4 had an HLA-A*0301 stabilization relative to HIV RK9 above 50%.
